Experimental data: publication PMC10757996

Experiments:
[1] = biological target: Arginylglycylaspartic acid (RGD) peptide grafted on poly-L-lysine-graft-poly(ethylene glycol) (PLL-g-PEG/PEG-RGD); assay: SPR; Goos-Hänchen lateral position shift read-out on a silver-GST plasmonic substrate; PLL-PEG-RGD immobilised on the GST layer through MPTES; 10 μg/mL integrin proteoliposomes flowed over; running buffer 1:10 dilution of PBS; highest Mn2+ concentration of the series (1 mM); exponential fits of association and dissociation
[2] = biological target: Arginylglycylaspartic acid (RGD) peptide grafted on poly-L-lysine-graft-poly(ethylene glycol) (PLL-g-PEG/PEG-RGD); assay: SPR; Goos-Hänchen lateral position shift read-out on a silver-GST plasmonic substrate; PLL-PEG-RGD immobilised on the GST layer through MPTES; 10 μg/mL integrin proteoliposomes flowed over; running buffer 1:10 dilution of PBS; lowest Mn2+ concentration of the series (1 nM); exponential fits of association and dissociation

kobs [1]: 0.146 min⁻¹
koff [1]: 0.00448 s⁻¹
kobs [2]: 0.101 min⁻¹
koff [2]: 0.00957 s⁻¹
Substance: αIIbβ3 integrin reconstituted into liposomes (integrin-embedded proteoliposomes) (from UniProt P08514 32-1039; P05106 27-788) (complex)
